Test results taken from paper PMC2887905.

Columns and labels:
[1] = target: Recombinant HIV-1 gp120 (LAV, CXCR4 monotropic, identical to NL4-3 gp120, glycosylated) (HIV-1 (LAV; identical to NL4-3 gp120)) (UniProt P03377)
[2] = target: gp41 (ARP671, spanning the entire extracellular domain of HIV-1 gp41MN) (HIV-1 (MN)) (UniProt P05877); test: SPR; gp41 immobilised on a biosensor; data not shown
Sequence of UniProt P05877 (P05877 32-685): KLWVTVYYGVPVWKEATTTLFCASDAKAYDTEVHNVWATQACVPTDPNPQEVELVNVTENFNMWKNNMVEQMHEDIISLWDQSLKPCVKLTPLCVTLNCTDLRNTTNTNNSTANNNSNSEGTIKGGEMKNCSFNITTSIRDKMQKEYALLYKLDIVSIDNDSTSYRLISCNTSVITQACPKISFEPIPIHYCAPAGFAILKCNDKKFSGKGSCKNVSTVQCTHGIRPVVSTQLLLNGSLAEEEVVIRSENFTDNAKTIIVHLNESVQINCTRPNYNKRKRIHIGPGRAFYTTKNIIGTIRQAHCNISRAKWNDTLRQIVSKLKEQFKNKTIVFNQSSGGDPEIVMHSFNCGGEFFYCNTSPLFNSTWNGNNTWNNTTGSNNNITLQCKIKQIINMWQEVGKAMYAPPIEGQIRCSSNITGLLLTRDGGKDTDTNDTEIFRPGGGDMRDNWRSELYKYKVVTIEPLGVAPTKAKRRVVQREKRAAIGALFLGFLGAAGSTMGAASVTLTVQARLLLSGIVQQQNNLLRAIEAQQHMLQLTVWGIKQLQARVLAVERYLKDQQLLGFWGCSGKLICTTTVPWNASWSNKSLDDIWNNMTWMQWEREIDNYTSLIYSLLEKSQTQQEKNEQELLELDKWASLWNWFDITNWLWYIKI

Substance	neutralisation of HIV-1 NL4-3 infection, p24 antigen ELISA on day 5, dose-dependent, value at 20 μg/ml [1] [%]	response units [2] [RU]	neutralisation of HIV-1 NL4-3 infection, p24 antigen ELISA on day 5, value at 50 μg/ml [1] [%]
HOCl-modified bovine serum albumin (protein:HOCl molar ratio 1:1000) (from UniProt P02769 25-607)	> 90	< 5	
HOCl-modified human serum albumin (protein:HOCl molar ratio 1:1000) (from UniProt P02768 25-609)	> 95	< 5	
HOCl-modified mouse serum albumin (protein:HOCl molar ratio 1:1000) (from UniProt P07724 25-608)		< 5	> 90
